Experimental findings from publication PMC9968394 are described below.

Holding throughout (experiment): SPR; Biacore; anti-OGT VNARs diluted to 100 nM; recombinant ncOGT in PBS at 50, 100, 200, 400 and 800 nM introduced successively; binding 120 s, dissociation 200 s in PBS; Langmuir model fit; who was immobilised is not said
(In SPR one partner is held on a chip, and binding of the other changes the refractive index at the surface.)

The target in assay [1] is anti-OGT VNAR 2D9 (Chiloscyllium plagiosum (whitespotted bambooshark)).
For assay [2], the target named is anti-OGT VNAR 3F7 (Chiloscyllium plagiosum (whitespotted bambooshark)).
In assay [3] the target is anti-OGT VNAR 4G2 (Chiloscyllium plagiosum (whitespotted bambooshark)).

B1: recombinant ncOGT protein (O-GlcNAc transferase) (enzyme)
chain: MASSVGNVADSTEPTKRMLSFQGLAELAHREYQAGDFEAAERHCMQLWRQEPDNTGVLLLLSSIHFQCRRLDRSAHFSTLAIKQNPLLAEAYSNLGNVYKERGQLQEAIEHYRHALRLKPDFIDGYINLAAALVAAGDMEGAVQAYVSALQYNPDLYCVRSDLGNLLKALGRLEEAKACYLKAIETQPNFAVAWSNLGCVFNAQGEIWLAIHHFEKAVTLDPNFLDAYINLGNVLKEARIFDRAVAAYLRALSLSPNHAVVHGNLACVYYEQGLIDLAIDTYRRAIELQPHFPDAYCNLANALKEKGSVAEAEDCYNTALRLCPTHADSLNNLANIKREQGNIEEAVRLYRKALEVFPEFAAAHSNLASVLQQQGKLQEALMHYKEAIRISPTFADAYSNMGNTLKEMQDVQGALQCYTRAIQINPAFADAHSNLASIHKDSGNIPEAIASYRTALKLKPDFPDAYCNLAHCLQIVCDWTDYDERMKKLVSIVADQLEKNRLPSVHPHHSMLYPLSHGFRKAIAERHGNLCLDKINVLHKPPYEHPKDLKLSDGRLRVGYVSSDFGNHPTSHLMQSIPGMHNPDKFEVFCYALSPDDGTNFRVKVMAEANHFIDLSQIPCNGKAADRIHQDGIHILVNMNGYTKGARNELFALRPAPIQAMWLGYPGTSGALFMDYIITDQETSPAEVAEQYSEKLAYMPHTFFIGDHANMFPHLKKKAVIDFKSNGHIYDNRIVLNGIDLKAFLDSLPDVKIVKMKCPDGGDNADSSNTALNMPVIPMNTIAEAVIEMINRGQIQITINGFSISNGLATTQINNKAATGEEVPRTIIVTTRSQYGLPEDAIVYCNFNQLYKIDPSTLQMWANILKRVPNSVLWLLRFPAVGEPNIQQYAQNMGLPQNRIIFSPVAPKEEHVRRGQLADVCLDTPLCNGHTTGMDVLWAGTPMVTMPGETLASRVAASQLTCLGCLELIAKNRQEYEDIAVKLGTDLEYLKKVRGKVWKQRISSPLFNTKQYTMELERLYLQMWEHYAAGNKPDHMIKPVEVTESA
Take B1: in assay [1], the Kd turned out to be 35.5 nM, the off-rate constant (koff) is 0.000675 s⁻¹ and the kon worked out at 19000 M⁻¹ s⁻¹. Besides, in assay [2], the Kd worked out at 53.4 nM, the koff came out at 0.00106 s⁻¹ and the kon worked out at 19800 M⁻¹ s⁻¹. Moreover, in assay [3], the equilibrium dissociation constant (Kd) amounted to 89.7 nM and the off-rate (koff) was found to be 0.00076 s⁻¹.

For orientation: Kd means the concentration at which binding is half-saturated. By koff is commonly meant a measure of how fast the partners let go of each other. Usually kon stands for a measure of how fast the partners come together.
